Source: the supplement of paper PMC12764529
± gives the half width of the 95% confidence interval.

Tests used:
[1] = folding stability dG unfold from chymotrypsin proteolysis; higher = more stable
Procedure: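 Folding stability of de novo designed mini-proteins (<80 aa, no Cys; designed by TrROS, TrMRF, ProteinMPNN and the joint model) was measured by cDNA display proteolysis with trypsin and chymotrypsin. Each protease was used at 11 concentrations in a threefold dilution series plus a no-protease condition. K50 was inferred by Bayesian fitting of sequencing counts, and dG unfold was derived against a sequence-predicted unfolded-state K50 (Tsuboyama et al. method). Sequences shown include variable-length N-terminal GS-type padding (SAGGSAGG...) inside a display construct carrying a PA tag. Rows were kept only if the AF2 dimer inter-PAE was >15, to exclude likely homo-oligomers.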

[2] = folding stability dG unfold (combined trypsin and chymotrypsin); higher = more stable
Summary of the method: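 Unfolding free energy was derived, per protease or combined, by relating Bayesian-fitted K50 values from sequencing counts to a sequence-predicted unfolded-state K50 and a shared folded-state K50. The underlying digests exposed cysteine-free mini-proteins under 80 residues, in a PA-tagged cDNA display construct, to trypsin and chymotrypsin at 11 threefold-diluted concentrations and to a no-protease condition. A filter kept only designs with AlphaFold2 dimer inter-PAE above 15.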

| Sequence | folding stability dG unfold [1] | folding stability dG unfold [2] |
| --- | --- | --- |
| SAGGSAGGSAGGGKVTVYTDPKGGVVITTTETPDSITATVVDPSGKTTTVTVPPGAPLLSAGGSAGGSAGGS [r10_976_JUSTAS] | 0.243 ± 0.18 kcal/mol | -0.183 ± 0.38 kcal/mol |
| SAGGSAGGSAGGGMDEEETVELDLTTKGTDPAEVEAARAARAEELGLPLADVRVRVSAESAGGSAGGSAGGS [r10_401_JUSTAS] | -0.252 ± 0.036 kcal/mol | < -1 kcal/mol |
| SAGGSAGGSAGGGMITFSSESVEEFGSVTPVNVVRRVTRYTTKVGDTIIETTEEEVVPLESAGGSAGGSAGG [r7_248_JUSTAS] | -0.049 ± 0.4 kcal/mol | -0.368 ± 0.28 kcal/mol |
| SAGGSAGGSAGGGMPYPIKTEVEIKKNGPNISTTETVYRPDGTKIETKKYKIPKKELKKKSAGGSAGGSAGG [r7_602_JUSTAS] | 0.154 ± 0.28 kcal/mol | < -1 kcal/mol |
| SAGGSAGGSAGGGPEVEVETETLPTADGRPVRLVRARVPTREYLFLVSPDGEILRRIPVSAGGSAGGSAGGS [r10_97_TrMRF] | 0.331 ± 0.16 kcal/mol | -0.331 ± 0.22 kcal/mol |
| SAGGSAGGSAGGGSMILNVRTVVEEDFPINDRRKVTVLDPVVLVPAVAFDPSTGKATPVSAGGSAGGSAGGS [r10_815_JUSTAS] | 0.667 ± 0.085 kcal/mol | 0.298 ± 0.083 kcal/mol |
| SAGGSAGGSAGGGSMTKIGNGYLRYTLPGDTVVIYDPSTGTTQTLPVSNPVPVELPPNIPSAGGSAGGSAGG [r7_299_JUSTAS] | 0.671 ± 0.031 kcal/mol | 0.208 ± 0.057 kcal/mol |
| SAGGSAGGSAGGHPVLLTVPRRYTYLLPGTAPRTVTVPVPVVVEVDDPEVALRLARELEGSAGGSAGGSAGG [r7_21_TrMRF] | -0.35 ± 0.73 kcal/mol | < -1 kcal/mol |
| SAGGSAGGSAGGKKEREFKFPGAPIQAPVERNPANGKLKIDVEVTGDNPDWAKRLADAFSAGGSAGGSAGGS [r10_582_TrROS] | -0.513 ± 0.56 kcal/mol | < -1 kcal/mol |
| SAGGSAGGSAGGKTYYVTGKLYLKDKPRVIEVKLPYPSELEEEAPERVKKLAEELAKEESAGGSAGGSAGGS [r10_313_TrMRF] | -0.394 ± 0.38 kcal/mol | < -1 kcal/mol |
| SAGGSAGGSAGGMDEPVSLPVRKPILSPGSPEEAEARAAELKAPGVEVDAVPRDAAGRLESAGGSAGGSAGG [r11_703_JUSTAS] | 0.764 ± 0.037 kcal/mol | 0.126 ± 0.13 kcal/mol |
| SAGGSAGGSAGGMFYIKIPNGKQFPFKSKEEFKDQLRERNGRPMKIKDIEIQPLDPNQFSAGGSAGGSAGGS [r10_62_TrROS] | 0.586 ± 0.26 kcal/mol | -0.0888 ± 0.32 kcal/mol |
| SAGGSAGGSAGGMIDIPISPEIAENVPPGATVEVEILRDDGRIERLKVKVEDFEPVLPGGSAGGSAGGSAGG [r7_732_TrMRF] | 0.308 ± 0.044 kcal/mol | 0.0628 ± 0.26 kcal/mol |
| SAGGSAGGSAGGMIWIPESELSKLPESFKNFKILKKTPLTLPHPSKKNKPVVLVEIEKKESAGGSAGGSAGG [r7_237_JUSTAS] | 0.696 ± 0.23 kcal/mol | 0.122 ± 0.53 kcal/mol |
| SAGGSAGGSAGGMLSPEVGLPEVPVTLTDPTNDKVYTITVPPDTNPAEVAAALGVALLLSAGGSAGGSAGGS [r10_202_JUSTAS] | 0.699 ± 0.23 kcal/mol | -0.237 ± 0.38 kcal/mol |
| SAGGSAGGSAGGMLVTETKPLPTPRTVATVVLLSTEEAPLPSGVLVRRETTEVKLVELISAGGSAGGSAGGS [r10_718_JUSTAS] | -0.503 ± 0.61 kcal/mol | < -1 kcal/mol |
| SAGGSAGGSAGGMPPEETVTVTIVESKPVPDPEGNPVEPLPVKTTTITVPASNPEALAAKSAGGSAGGSAGG [r7_439_JUSTAS] | 0.00655 ± 0.072 kcal/mol | -0.487 ± 0.21 kcal/mol |
| SAGGSAGGSAGGMPVSVETKLIEKDPVEDVEISLETFPGTDLRVIVTKTKNEVKKTVIPKSAGGSAGGSAGG [r17_370_JUSTAS] | -0.252 ± 0.13 kcal/mol | -0.719 ± 0.51 kcal/mol |
| SAGGSAGGSAGGMSAEEVREIVEELGFDDPTEVVVLDLPDGRRVLVTNPPDGLRLEVLDSAGGSAGGSAGGS [r10_604_TrMRF] | 0.967 ± 0.053 kcal/mol | 0.562 ± 0.12 kcal/mol |
| SAGGSAGGSAGGMSSTVTVTTTPVDPNVGLYRVTTTTYYVDPDGPAHPGTSVSLVNRALSSAGGSAGGSAGG [r11_51_JUSTAS] | -1.34 ± 0.83 kcal/mol | < -1 kcal/mol |
| SAGGSAGGSAGGMSVSPEGYSVSVTGSGPRGVPVPASNAAEQRAALAAQPDVSSVTVTASSAGGSAGGSAGG [r11_587_JUSTAS] | 0.36 ± 0.05 kcal/mol | -0.883 ± 0.18 kcal/mol |

| Sequence | folding stability dG unfold [1] | folding stability dG unfold [2] |
| --- | --- | --- |
| SAGGSAGGSAGGMTETKVYPKSSEGGKLTTITTTTTPLKDPKGNWSTKTTTTTSVSPATSAGGSAGGSAGGS [r10_496_JUSTAS] | 0.131 ± 0.15 kcal/mol | -0.486 ± 0.27 kcal/mol |
| SAGGSAGGSAGGMTITKSPEPDLVTVTLPDASGTTVATLTFSPEVVESDPALVAAAAAATSAGGSAGGSAGG [r17_496_JUSTAS] | 0.516 ± 0.095 kcal/mol | -0.335 ± 0.39 kcal/mol |
| SAGGSAGGSAGGMTRTITVKSPGDAEAVVEELKPLGWEVKEIKKDTANPNVYTVTVEKPSAGGSAGGSAGGS [r10_104_JUSTAS] | 0.752 ± 0.15 kcal/mol | 0.198 ± 0.25 kcal/mol |
| SAGGSAGGSAGGMVPGETVTITIPVPPTGKEVPVEISTTLPPEEREALAEAKAAELEAALSAGGSAGGSAGG [r7_957_JUSTAS] | 0.602 ± 0.025 kcal/mol | -0.199 ± 0.11 kcal/mol |
| SAGGSAGGSAGGNKKKIELHFFFDPGQPAEEAKDFIRGAALENGDTITDVDIHWVPPEDFSAGGSAGGSAGG [r7_703_TrROS] | 0.201 ± 0.11 kcal/mol | -0.384 ± 0.3 kcal/mol |
| SAGGSAGGSAGGPALAEELARKLPPGARVRVRVERDADGNLTITVEVEPAPPVEVVEEESAGGSAGGSAGGS [r10_385_TrROS_Hall] | 0.366 ± 0.044 kcal/mol | -0.06 ± 0.23 kcal/mol |
| SAGGSAGGSAGGPKVTVFDDHPKKVVLVEFPDKPILAVYDPVTKEVVLLNPDTDELLPLSAGGSAGGSAGGS [r10_434_TrMRF] | -0.551 ± 0.22 kcal/mol | -0.889 ± 0.47 kcal/mol |
| SAGGSAGGSAGGPLLALFDPVPGRVVVVGLRPLPEDSYELDPYVLELDPTTGEAKVRKASAGGSAGGSAGGS [r10_1041_TrMRF] | -0.547 ± 0.42 kcal/mol | -0.852 ± 0.59 kcal/mol |
| SAGGSAGGSAGGPVVTETPTTSVVYDPAKGTVTYVTPTVVTFPDGTTTTTVASTTVPLPASAGGSAGGSAGG [r11_308_JUSTAS] | 0.531 ± 0.15 kcal/mol | 0.0838 ± 0.2 kcal/mol |
| SAGGSAGGSAGGPWKIKEIETVPEGGKERMTIKIEDDNGKPKKPVHMPPDDLDNLPPDLISAGGSAGGSAGG [r7_263_TrROS] | -0.605 ± 0.24 kcal/mol | < -1 kcal/mol |
| SAGGSAGGSAGGRTYRLTLTRPDGRPLTFEVPTDTAPEHVELLKSLFPDEEIEADISDVESAGGSAGGSAGG [r7_349_TrMRF] | 0.491 ± 0.22 kcal/mol | -0.652 ± 0.46 kcal/mol |
| SAGGSAGGSAGGSAAEFVAAHPDVEARPVEEGPGSVLVALRPPGGPELLVRVEGAAVTLESAGGSAGGSAGG [r7_26_JUSTAS] | -0.459 ± 0.34 kcal/mol | < -1 kcal/mol |
| SAGGSAGGSAGGSAPYALVEVLPGGVVVVAYPDGSRRLVEVERDPSSDLWRVLREEDLPSAGGSAGGSAGGS [r4_247_JUSTAS] | 0.688 ± 0.1 kcal/mol | 0.278 ± 0.068 kcal/mol |
| SAGGSAGGSAGGSEEKPLVIPIPAHPDIPAEVVRKAVEPLTGVPIEAVLGDEDTLLVVGSAGGSAGGSAGGS [r4_469_TrMRF] | 0.661 ± 0.022 kcal/mol | 0.187 ± 0.077 kcal/mol |
| SAGGSAGGSAGGSFTLTTPGRTETVPAGSEVYFGNGIKLHPDLPLADIPPELLTPIGTRPSAGGSAGGSAGG [r17_511_TrMRF] | 0.48 ± 0.27 kcal/mol | -0.229 ± 0.24 kcal/mol |
| SAGGSAGGSAGGSGGVTVSQYEGGKATRTVTSFDPVNNSTSTTTTTTFTIPPDEPVTVSSAGGSAGGSAGGS [r10_1153_JUSTAS] | 0.236 ± 0.2 kcal/mol | -0.371 ± 0.29 kcal/mol |
| SAGGSAGGSAGGSGPEELAAAARAAHPELGAPVRVEVTYTPEAGEFPVRVFLPEDGAALSAGGSAGGSAGGS [r4_312_JUSTAS] | -0.335 ± 0.14 kcal/mol | < -1 kcal/mol |
| SAGGSAGGSAGGSGRVEIELEFKLENGFYVRIKAEIEFEEDGKIRIKVEIELLPEELEESAGGSAGGSAGGS [r4_297_TrROS_Hall] | 3.67 ± 0.34 kcal/mol | 3.89 ± 0.41 kcal/mol |
| SAGGSAGGSAGGSHIQFDPEGRWKIRNRDNNNTREFPADDLPKLPPDFDIPKGARIEPYSAGGSAGGSAGGS [r4_91_TrROS] | -0.134 ± 0.25 kcal/mol | -0.518 ± 0.19 kcal/mol |
| SAGGSAGGSAGGSHPVKITEITEFNPGDNRMRIDIKHPNGGKKEIVVPGMPVEEILNAISAGGSAGGSAGGS [r4_357_TrROS] | 0.0992 ± 0.031 kcal/mol | -0.635 ± 0.21 kcal/mol |
| SAGGSAGGSAGGSKIIRIKAKPNEKKEIKIDGKWYKLYADKDNPDRVYIERPDGTIDPASAGGSAGGSAGGS [r4_488_TrMRF] | 0.685 ± 0.14 kcal/mol | 0.26 ± 0.13 kcal/mol |
